pKd: −log10 of the molar value. Where “and” joins values, the source holds several entries; their conditions need not be identical. Equal values may be shown once.

One assay concerns the target FITC-3BP2. The assay can be described thus: fluorescence polarisation; saturation binding: dilution series of the protein domain added to 10 nM FITC-labelled peptide; 50 mM sodium phosphate pH 7.4, 0.05% Tween (protein dialysed in 50 mM sodium phosphate with 1 mM DTT; CASK kinase domain with 100 mM NaCl in addition); quadratic fit; technical triplets. (In general: Fluorescence polarisation rises when a labelled molecule tumbles more slowly, as on binding a larger partner.)

For assay [1], the target named is importin subunit α-3 (KPNA4) ARM domain. The experiment in a line: fluorescence polarisation displacement. Conditions: major pocket.
Assay [2] has as its target MAP1LC3B ATG8 domain (human) (UniProt Q9GZQ8). The experiment in a line: ITC; peptide titrated in tenfold excess in 16 injections against the protein domain; 50 mM sodium phosphate pH 7.4, 1 mM DTT; iTC200; wild-type in technical duplicate, mutant in technical triplets; one line of constants for each repeat.
Assay [3] has as its target MAP1LC3B ATG8 domain (human). The assay can be described thus: ITC; peptide titrated in tenfold excess in 16 injections against the protein domain; 50 mM sodium phosphate buffer pH 7.4, 1 mM DTT; iTC200.
Assay [4] addresses MAP1LC3B ATG8 domain (human). The experiment in a line: fluorescence polarisation; displacement: unlabelled peptide titrated onto a complex of FITC-labelled peptide (10 nM) and protein domain (1-2x KD); 50 mM sodium phosphate buffer pH 7.4 (CASK: plus 100 mM NaCl); KD calculated from IC50; technical triplets.
The target of another assay is FITC-TCF3. The assay can be described thus: fluorescence polarisation; saturation binding: dilution series of the protein domain added to 10 nM FITC-labelled peptide; 50 mM sodium phosphate pH 7.4, 0.05% Tween (protein dialysed in 50 mM sodium phosphate with 1 mM DTT; CASK kinase domain with 100 mM NaCl in addition); quadratic fit; technical triplets.
The target in another assay is FITC-PER2. The assay is described as above.
The target of the next assay is ABL1 SH3 (human) (UniProt P00519). The assay can be described thus: fluorescence polarisation; displacement: unlabelled peptide titrated onto a complex of FITC-labelled peptide (10 nM) and protein domain (1-2x KD); 50 mM sodium phosphate buffer pH 7.4 (CASK: plus 100 mM NaCl); KD calculated from IC50; technical triplets.
ABL1 SH3 (human), sequence (P00519 61-121): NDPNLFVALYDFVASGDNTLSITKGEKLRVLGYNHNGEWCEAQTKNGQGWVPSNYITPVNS

CREBBP KIX domain, sequence (Q92793 587-666): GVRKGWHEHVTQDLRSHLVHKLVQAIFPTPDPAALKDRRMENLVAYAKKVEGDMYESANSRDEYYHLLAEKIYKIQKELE
ABL1 SH3 domain, sequence (P00519 61-121): as the sequence (P00519 61-121) above

In the assay with FITC-3BP2, “ABL1 SH3 domain (from UniProt P00519 61-121) (domain or fragment)” had a negative-log Kd (pKd) of 5.43.

In assay [1], “ABRAXAS1_(349-364) wild-type peptide R361Q” showed a pKd of 4.12. As to “BRCA2 292-307 peptide, mutant T298I/V299L/V300R”, the stoichiometry N in assay [2] is 0.744 and 0.685 and 0.649. Regarding BRCA2 292-307 peptide, wild-type, in assay [2], the pKd was 3.96 and 4.20 and 4.74; the stoichiometry N is 0.7 and 0.684. On to “BRCA2_(292-307) T298I/V299L/V300R peptide”, for which the pKd was 5.70 in assay [3] and 6.28 in assay [4]. As to BRCA2_(292-307) wild-type peptide, the values for the pKd in assay [3] and in assay [4] were 4.00 to 4.70 and 5.51, respectively. Consider BUB1_(486-501) S492F peptide, for which the negative-log Kd (pKd) in assay [4] is 5.80. BUB1_(486-501) wild-type peptide: the pKd in assay [4] is 5.15. Consider “CREBBP KIX domain (from UniProt Q92793 587-666) (domain or fragment)”, for which, in the assay with FITC-TCF3, the pKd was 4.46. The substance “Peripheral plasma membrane protein CASK (CASK) kinase domain (from UniProt O14936 12-276) (domain or fragment)” had a pKd in the assay with FITC-PER2 of 5.47. For the substance SQSTM1 334-349 P348L peptide, the negative-log Kd (pKd) in assay [4] is 6.22. In the case of SQSTM1 334-349 wild-type peptide, the pKd in assay [4] is 6.30. TP53 64-80 P72R peptide: the negative-log Kd (pKd) with ABL1 SH3 (human) is 3.25.

The term pKd denotes the Kd on a negative log10 scale, so that one unit is a factor of ten. In general, stoichiometry N refers to a count of units in the complex or per binding partner.

(Values after paper PMC11369174, “Proteome-scale characterisation of motif-based interactome rewiring by disease mutations” (Molecular Systems Biology, 2024).)
